In publication PMC10311653:

Molecular target: wildtype (WT) human interleukin-1β (human) (UniProt P01584)
Experiment: ELISA; antigen (100 ng) coated on the plate; scFv-mFc added in 3% skim milk in DPBST, 2 h at 37 °C; EC50

EC50: 0.0174 µM
B1: E64Kcr-H11-mFc (Fc fusion)
VH: EVQLQQSGAELVKPGASVRLSCTASGFNIKDYYMHWVKQRPEQGLEWIGWIDPENGDTEYAPKFQGKATMTADTSSNTAYLQLSSLTSEDTAVYYCNGYDDYWGQGTTLTVSS
VL: DIVMTQSQKFMSTSVGDRVSVTCKASQNVGTDVAWYQQKPGQSPKALIYSASYHYSGVPDRFTGTGSGTDFTLTISNVRSEDLAEYFCQQYNSYPYTFGGGTKLEIK
